Data on one molecule can be found in patent publication US20090074722A1, “Products and methods for treating PTP lar diseases” (MAX-PLANCK-GESELLSCHAFT ZUR, priority 1999, published 2009).

This test deals with T1, tyrosine phosphorylated β-catenin (Homo sapiens, UniProt P35222).
T1 construct: expressed in transfected cells; host or cells: human 293 embryonic kidney cells, transient; CMV-promoter vector; immunoprecipitated with anti-β-catenin antibody
T1 sequence (P35222 1-781): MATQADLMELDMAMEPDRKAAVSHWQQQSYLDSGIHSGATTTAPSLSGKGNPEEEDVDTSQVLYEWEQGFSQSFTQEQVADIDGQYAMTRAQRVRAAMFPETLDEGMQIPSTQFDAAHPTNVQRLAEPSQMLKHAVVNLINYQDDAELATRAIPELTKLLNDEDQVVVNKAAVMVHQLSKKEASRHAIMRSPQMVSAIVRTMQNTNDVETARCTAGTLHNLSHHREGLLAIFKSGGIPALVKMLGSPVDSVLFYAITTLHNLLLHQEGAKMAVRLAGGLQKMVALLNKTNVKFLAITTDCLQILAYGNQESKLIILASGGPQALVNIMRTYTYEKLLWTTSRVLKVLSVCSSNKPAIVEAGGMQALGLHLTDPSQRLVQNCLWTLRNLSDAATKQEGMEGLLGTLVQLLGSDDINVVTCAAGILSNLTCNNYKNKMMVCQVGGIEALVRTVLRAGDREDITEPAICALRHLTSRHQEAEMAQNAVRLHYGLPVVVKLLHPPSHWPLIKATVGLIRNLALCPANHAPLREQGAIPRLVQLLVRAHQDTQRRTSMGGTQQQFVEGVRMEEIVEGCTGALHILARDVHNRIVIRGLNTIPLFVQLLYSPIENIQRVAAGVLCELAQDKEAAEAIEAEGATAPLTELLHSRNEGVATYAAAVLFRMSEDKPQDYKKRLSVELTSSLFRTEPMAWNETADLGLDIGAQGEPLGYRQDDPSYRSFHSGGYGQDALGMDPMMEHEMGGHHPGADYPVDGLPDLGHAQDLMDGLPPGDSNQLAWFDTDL
Briefly: In vitro dephosphorylation assay. Conditions: 200 ng GST fusion protein, 25° C.; within the first five minutes; anti-phosphotyrosine Western blot. It is filed as biochemical. On the procedure:
After 24 h of serum starvation, the cells were stimulated with pervanadate before lysis. β-catenin was subsequently immunoprecipitated with an anti-β-catenin antibody, and precipitates were incubated for the indicated time intervals with GST-PTP LAR cytoplasmic fusion protein (left), GST-PTP LAR PTP D1 C1522S-mutant (middle) or GST-PTP LAR PTP D2 C1813S-mutant (right). Reactions were terminated after the indicated periods of time, and proteins were separated by SDS-PAGE. Tyrosine phosphorylation levels of […] were analyzed by Western blotting with an anti-phosphotyrosine antibody (top). […] Arrows indicate the proteins of interest.
In Vitro Dephosphorylation Assay—β-catenin was transiently overexpressed in human 293 embryonic kidney cells. Cells were serum-starved, treated with pervanadate ([…]/0.1 mM Na-orthovanadate) for 10 minutes and lysed. Immunoprecipitations were performed as described above except that HNTG without pyrophosphate, ammonium-molybdate, and Na-orthovanadate was used. PTP activity towards tyrosine phosphorylated β-catenin was assayed in 200 μL reactions at 25° C. containing 25 mM HEPES, pH 7.5, 5 mM EDTA, 10 mM DTT, and 1 mg/mL BSA with 200 ng of GST-hPTP LAR cytoplasmic, GST-hPTP LAR D1 C1522S, or GST-hPTP LAR D2 C1813S added. Reactions were stopped by washing with HNTG and subsequently separated by SDS-PAGE. The tyrosine phosphorylation status was analyzed by Western blotting using anti-phosphotyrosine antibody.
The association of β-catenin and plakoglobin with PTP LAR prompted the investigation of whether these proteins could represent actual substrates for PTP LAR. […] After different time intervals, the reactions were terminated and analyzed with an anti-phosphotyrosine specific antibody.

B1: GST-PTP LAR cytoplasmic: GST fusion protein comprising the entire cytoplasmic domain (amino acids 1259-1881) of human PTP LAR (protein)
chain: PEMLWVTGPVLAVILIILIVIAILLFKRKRTHSPSSKDEQSIGLKDSLLAHSSDPVEMRRLNYQTPGMRDHPPIPITDLADNIERLKANDGLKFSQEYESIDPGQQFTWENSNLEVNKPKNRYANVIAYDHSRVILTSIDGVPGSDYINANYIDGYRKQNAYIATQGPLPETMGDFWRMVWEQRTATVVMMTRLEEKSRVKCDQYWPARGTETCGLIQVTLLDTVELATYTVRTFALHKSGSSEKRELRQFQFMAWPDHGVPEYPTPILAFLRRVKACNPLDAGPMVVHCSAGVGRTGCFIVIDAMLERMKHEKTVDIYGHVTCMRSQRNYMVQTEDQYVFIHEALLEAATCGHTEVPARNLYAHIQKLGQVPPGESVTAMELEFKLLASSKAHTSRFISANLPCNKFKNRLVNIMPYELTRVCLQPIRGVEGSDYINASFLDGYRQQKAYIATQGPLAESTEDFWRMLWEHNSTIIVMLTKLREMGREKCHQYWPAERSARYQYFVVDPMAEYNMPQYILREFKVTDARDGQSRTIRQFQFTDWPEQGVPKTGEGFIDFIGQVHKTKEQFGQDGPITVHCSAGVGRTGVFITLSIVLERMRYEGVVDMFQTVKTLRTQRPAM
Consider B1, for which the “tyrosine phosphorylation signal of β-catenin” value is given as “significant reduction in the tyrosine phosphorylation signal”.
